Assay results taken from the DeepSol protein solubility set.

Test: soluble on expression in E. coli; label from the status in PepcDB or PDB records
For “MPSYKLTYFDACGFGESARMLFHLGGVPYEDVRLPTINAVPGFQSDEFSALKDKTPFGRFTVLSIDGFDLAQSSAIHRYLARKFGYAGKTPEDEAFADSIVDQFNEYYASLHPYRDAVKTGKTMEEVKQIHDKVYIPAKNLMFKILTRILKENKSGFLVGDGLTWADLVVADHLYTLTNLKELDPEDPIHLTLRKFQEKIFNLTELKDYIETRPVTLV”, the “soluble on expression in E. coli” value was “not soluble”. For “MQHYLLDSNQRLNVSFSKDSVAAYYQCFNQPYRKEVPPLMCASLWPKFDLFKKYANSELILTKSAINQTQKIEVDTIYVGHLEDIECRQTRNITRYTMALTLTKNDQHVITVTQTFIKAMK”, the “soluble on expression in E. coli” value was “not soluble”. For “MVFPSEQEQIEKFEKDHVAQHYFEVLRTLISKKSVFAQQVGLKEVANYLGEIFKRVGAEVEIDESYTAPFVMAHFKSSRPDAKTLIFYNHYDTVPADGDQVWTEDPFTLSVRNGFMYGRGVDDDKGHITARLSALRKYMQHHDDLPVNISFIMEGAEESASTDLDKYLEKHADKLRGADLLVWEQGTKNALEQLEISGGNKGIVTFDAKVKSADVDIHSSYGGVVESAPWYLLQALQSLRAADGRILVEGLYEEVQEPNEREMALLETYGQRNPEEVSRIYGLELPLLQEERMAFLKRFFFDPALNIEGIQSGYQGQGVKTILPAEASAKLEVRLVPGLEPHDVLEKIRKQLDKNGFDKVELYYTLGEMSYRSDMSAPAILNVIELAKKFYPQGVSVLPTTAGTGPMHTVFDALEVPMVAFGLGNANSRDHGGDENVRIADYYTHIELVEELIRSYE”, the “soluble on expression in E. coli” value was “soluble”. With “MGARCSKLSVCWWPPHFKSPLLENGAAADDGSGVPVFAEYSLDELRVATDGFSPERIVSEHGEKAPNVVYRGTLFSTGRTVAIKRFGRSAWPDSRQFLEEAMAVGQLRSVRLANLIGCCCENGERLLVAEFMPHETLAKHLFHWETKPLSWAMRVRAAFYVAQALEYCSSKGRALYHDLHAYRVLFDVDGNPRLSCFGLMKNSRDGKSYSTNLAFTPPEYLKTGRVIPESVVYSFGTILLDLLSGKHIPPSHALDLIRGKNYLVLMDSCLEGHVSSSDGTELIRLASRCLQYEGRDRPNLKSVVSALGNLQKDASAPSHALLGIQHDKENTERISLSAIAKVYARADLDEVHEMLENDGYCEDERATFEVSFHSWTGQQVSDSILVKKHGDSAFQSKDFATAVECYSRFIDTGVMVSPTMLARRSFVYMVLGKLQEGLADAKKAADISPEWPTAHYLQGMAYLAMGMEPEGHEELKQGAALEAERNAR” the “soluble on expression in E. coli” value was “soluble”. For “MRSRVLWGAARWLWPRRAVGPARRPLSSGSPPLEELFARGGPLRTFLERQAGSEAHLKVRRPELLAVIKLLNEKEQELRETEHLLHDENEDLRKLAENEITLCQKEITQLKHQIILLLVPSEETDENDLILEVTAGVGGQEAMLFTSEIFDMYQQYAAFKRWHFETLEYFPSELGGLRHASASIGGSEAYRHMKFEGGVHRVQRVPKTEKQGRVHTSTMTVAILPQPTEINLVINPKDLRIDTKRASGAGGQHVNTTDSAVRIVHLPTGVVSECQQERSQLKNKELAMTKLRAKLYSMHLEEEINKRQNARKIQIGSKGRSEKIRTYNFPQNRVTDHRINKTLHDLETFMQGDYLLDELVQSLKEYADYESLVEIISQKV”, the “soluble on expression in E. coli” value was “soluble”. With “MGSDKIHHHHHHTKKEISTQPIKVGVFDGHGGAQTCIWETVAAIRLDPEMEVRTITTADIANNALDSIDAIIIPGGSGKSQYLNLGTLNQQRIKDFIAKGKGAVGICAGAYLFSNTPDYTCIQLNGQQAIDIEHDNRGHGLAKFTLCEEGKKIFPELADRDTSFVIYYEGPVFINNPVDTIQSNTLAIMESDVHEEGNAPANMTNGKPFFVANNYGKGRVFSSIAHPEGTPGMMWMIPRMVRWTLNKPFIPYQSSAVRPDLFNHESLMATDDLKQEEKAFQILLSGESEQKVAALDWLEAHHSWDAKRWVQGLLYDASPAVRIRAARYIADTHYLPFLPNLQAAYRTETDKATQEELKTQLEKLTALLP” the “soluble on expression in E. coli” value was “not soluble”. With “MIWRLIMLIDRFGRPVTNLRISLTKECNLSCFYCHREGQLDGERFMTPEEIERIVRVASRLGIKKVKLTGGEPTIRKDILEIIRRLKPYVVDLSLTTNGTTMYVLAEKLKEAGLDRVNISLDTLDRKKYKMITGFNVLDEVIKGIKKATKLFYPVKLNMVVMKGVNDDEIWDMMRFAGEVNAILQLIELEVPREMENSQFFKDFFYPLKPLEEKFEKLAVKVKERRMHRRRKYFIPIDGKIVEVEVVRSMHNTVFCMNCTRLRLTADGYLKTCLLRRDDLIDILGPLRNGASDADLIEIFKRAVLLRRPYWTSNSSLEHHHHHH” the “soluble on expression in E. coli” value was “soluble”. With “MHGLNKDIIFPLQIFALSNNVLYNFPEQGVVPVLYVIYAQDKADSLEKRLSVRPAHLARLQLLHDEGRLLTAGPMPAVDSNDPGAAGFTGSTVIAEFESLEAAQAWADADPYVAAGVYEHVSVKPFKKVF” the “soluble on expression in E. coli” value was “not soluble”. With “MSASQKEGKLSTATISVDGKSAEMPVLSGTLGPDVIDIRKLPAQLGVFTFDPGYGETAACNSKITFIDGDKGVLLHRGYPIAQLAENASYEEVIYLLLNGELPNKAQYDTFTNTLTNHTLLHEQIRNFFNGFRRDAHPMAILCGTVGALSAFYPDANDIAIPANRDLAAMRLIAKIPTIAAWAYKYTQGEAFIYPRNDLNYAENFLSMMFARMSEPYKVNPVLARAMNRILILHADHEQNASTSTVRLAGSTGANPFACIAAGIAALWGPAHGGANEAVLKMLARIGKKENIPAFIAQVKDKNSGVKLMGFGHRVYKNFDPRAKIMQQTCHEVLTELGIKDDPLLDLAVELEKIALSDDYFVQRKLYPNVDFYSGIILKAMGIPTSMFTVLFAVARTTGWVSQWKEMIEEPGQRISRPRQLYIGAPQRDYVPLAKR” the “soluble on expression in E. coli” value was “soluble”. In the case of “MSLEAKRPEQTRVVVGMSGGVDSSVTALLLKEQGYDVIGIFMKNWDDTDENGVCTATEDYQDVVQVCNQLGIAYYAVNFEKEYWDKVFTYFLEEYKAGRTPNPDVMCNKEIKFKAFLNHALTLGADYVATGHYAQVKNVDGQYQLIRGKDPNKDQTYFLNALSQQQLSRVMFPLGHLEKKEVRAIAERAGLATAKKKDSTGICFIGKRDFKEFLSSYLPAQPGEMQTLDGEVKGTHDGLMYYTLGQRQGLGIGGSGEPWFVIGKNLEKNILYVGQGFHHPGLYSEGLRAIKVNWILRRESDEPFECTAKFRYRQPDQKVTVYPQSDGAVEVLFAEPQRAITPGQAVVFYDGDVCLGGGTIDHVLKKKEDRESAEGHHHHHH”, the “soluble on expression in E. coli” value is reported as “soluble”. With “MPKATFYTHVAQVPIFTCRLIARAIRDGGRILVWSDSFGQLQELDKMLWQYEAESFIPHEIWETEEAMPSEPSVLLACGGNLPRIPEGMTVLNLSDGFWNTAPVLPARVLEIVGNSLEELADARERFTAYRRSGFAIEHHGMEGKA” the “soluble on expression in E. coli” value was “not soluble”. With “MTQISERLLVQAHLDAKQPNPLTAEQEAEYRAAIAAELKAQNAVLVAHYYCDPVIQALAEETGGCVSDSLEMARFGKNHPAETVIVAGVRFMGETAKILTPEKRVLMPTLEATCSLDLGCPVEEFSAFCDQHPERTVVVYANTSAAVKARADWVVTSSCALEIVESLMDNGETIIWGPDQHLGRYIQKQTGADMLLWDGACIVHEEFKSRQLADMKALYPDAAILVHPESPEAVIELADAVGSTSQLIKAAQTLPNKTFIVATDRGIFYKMQQLCPDKEFVEAPTAGNGAACRSCAHCPWMAMNTLERVLDCLRNGTNEIFVDPALVPKAIKPLNRMLDFTQAARLKLSGNALEHHHHHH” the “soluble on expression in E. coli” value was “not soluble”. In the case of “PMGDGTQVVFTTSLIPTEAIVQLDTKAPANSKQSPIFFISPIEGFASALEPLAKRLEVPAYGLQYTEAVPSDSLESAAKFFIKQLRTVQPKGPYKLAGYSFGCLLTYVMAGILEETNEVANVIMLDGAPSYVNWYTSSFKQRYTDGTNADNDNQSYGLAYFGIVLANIDYKALVRLLIVIPTWEEKLERFAELMSNEITQPVETIKKSATLFYKKLELADGYQPTLKLKTNVTLVKPTDNSAKLDEDYRLKEVCTKPVEVHTVEGNHRTFLIEDQSLKTIQSILKRL”, the “soluble on expression in E. coli” value is reported as “soluble”. In the case of “MGSDKIHHHHHHMTEAHNACCHPSGTAAGHHGAGKASTDMMDAVDRRLLDIIQTGFPIEPRPYAVLGETLGITECEALARVRALRERKVIRRLGANFDSWKLGFRSTLCAAKVPEDRIDAFVAEVNRHVNVTHNYLRNHEYNIWFTCICPSWEQVCSLLDGITERTGIPILNLPATKLYKIRVDFRMD”, the “soluble on expression in E. coli” value is reported as “not soluble”.
